From patent US20250304666A1 (ALCHEMAB THERAPEUTICS, published 2025)

Assays:
reduced CFHR2 = target: T1, reduced CFHR2 (UniProt P36980 19-270, limits assumed); assay: ELISA, reduced antigen
T1 sequence (looked up): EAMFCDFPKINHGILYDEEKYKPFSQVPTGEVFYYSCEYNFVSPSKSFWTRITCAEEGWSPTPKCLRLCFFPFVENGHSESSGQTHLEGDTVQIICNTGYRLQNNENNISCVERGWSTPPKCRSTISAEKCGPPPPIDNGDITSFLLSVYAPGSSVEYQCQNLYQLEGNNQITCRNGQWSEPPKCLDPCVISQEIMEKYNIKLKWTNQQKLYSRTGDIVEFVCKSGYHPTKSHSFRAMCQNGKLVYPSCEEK

reduced CFHR3 [1] = target: T2, reduced CFHR3 (UniProt Q02985 19-330, limits assumed); assay: ELISA, reduced antigen
T2 sequence (looked up): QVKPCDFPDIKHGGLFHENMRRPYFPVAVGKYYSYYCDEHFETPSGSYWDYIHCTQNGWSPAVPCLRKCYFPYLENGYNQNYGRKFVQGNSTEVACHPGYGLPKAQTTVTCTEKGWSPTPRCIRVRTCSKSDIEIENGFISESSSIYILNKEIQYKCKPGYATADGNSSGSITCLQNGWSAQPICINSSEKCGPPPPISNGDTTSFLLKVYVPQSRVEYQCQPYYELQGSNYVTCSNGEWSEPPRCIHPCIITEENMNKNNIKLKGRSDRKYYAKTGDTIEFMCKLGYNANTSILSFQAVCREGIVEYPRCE

reduced CFHR1 = target: T3, reduced CFHR1 (UniProt Q03591 19-330, limits assumed); assay: ELISA, reduced antigen
T3 sequence (looked up): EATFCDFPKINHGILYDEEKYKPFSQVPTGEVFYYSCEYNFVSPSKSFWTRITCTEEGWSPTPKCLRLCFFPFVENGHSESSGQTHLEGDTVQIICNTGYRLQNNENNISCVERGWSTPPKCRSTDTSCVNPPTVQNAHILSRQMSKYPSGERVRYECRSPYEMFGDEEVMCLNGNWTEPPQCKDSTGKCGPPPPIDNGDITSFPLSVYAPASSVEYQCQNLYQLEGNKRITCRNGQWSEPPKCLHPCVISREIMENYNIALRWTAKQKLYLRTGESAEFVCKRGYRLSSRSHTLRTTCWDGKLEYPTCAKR

reduced CFHR5 [2] = target: T4, reduced CFHR5 (UniProt Q9BXR6 19-569, limits assumed); assay: ELISA, reduced antigen
T4 sequence (looked up): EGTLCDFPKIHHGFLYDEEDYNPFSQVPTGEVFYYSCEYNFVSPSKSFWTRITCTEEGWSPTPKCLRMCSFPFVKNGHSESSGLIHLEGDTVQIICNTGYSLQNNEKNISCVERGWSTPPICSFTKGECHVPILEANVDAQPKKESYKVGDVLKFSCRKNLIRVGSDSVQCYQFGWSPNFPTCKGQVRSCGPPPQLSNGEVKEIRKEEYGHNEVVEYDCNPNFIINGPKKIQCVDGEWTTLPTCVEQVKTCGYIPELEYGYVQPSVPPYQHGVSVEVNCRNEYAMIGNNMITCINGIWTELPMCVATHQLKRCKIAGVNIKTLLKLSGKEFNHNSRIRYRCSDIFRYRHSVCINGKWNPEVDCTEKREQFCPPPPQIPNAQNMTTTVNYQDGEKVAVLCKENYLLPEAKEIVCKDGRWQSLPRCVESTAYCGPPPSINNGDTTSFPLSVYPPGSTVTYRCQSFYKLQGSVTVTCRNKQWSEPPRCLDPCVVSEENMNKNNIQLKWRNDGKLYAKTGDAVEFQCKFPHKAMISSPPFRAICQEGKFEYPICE

reduced CFH [3] = target: T5, reduced CFH (Homo sapiens (Human), UniProt P08603 860-1231, limits assumed); assay: ELISA, reduced antigen
T5 construct: also called CFH (reduced)
T5 sequence: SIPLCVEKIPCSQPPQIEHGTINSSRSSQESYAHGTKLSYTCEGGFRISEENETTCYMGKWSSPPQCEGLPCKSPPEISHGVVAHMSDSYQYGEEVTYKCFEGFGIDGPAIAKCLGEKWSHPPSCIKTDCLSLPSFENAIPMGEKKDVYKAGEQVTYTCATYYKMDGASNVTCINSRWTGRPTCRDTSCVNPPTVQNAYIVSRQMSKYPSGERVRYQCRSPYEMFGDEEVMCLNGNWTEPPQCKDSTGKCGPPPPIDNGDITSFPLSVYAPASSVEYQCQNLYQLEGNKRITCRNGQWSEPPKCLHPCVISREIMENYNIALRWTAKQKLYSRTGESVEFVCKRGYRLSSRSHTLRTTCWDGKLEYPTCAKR

reduced CFH [4] = target: T5, reduced CFH; assay: ELISA on reduced CFH after heating the mAb (70 C, 1 h, as Figure 16)
non-reduced CFHR2 = target: T6, non-reduced CFHR2; assay: ELISA, non-reduced antigen
T6 construct: also called CFHR2 (NON-REDUCED)
T6 chain: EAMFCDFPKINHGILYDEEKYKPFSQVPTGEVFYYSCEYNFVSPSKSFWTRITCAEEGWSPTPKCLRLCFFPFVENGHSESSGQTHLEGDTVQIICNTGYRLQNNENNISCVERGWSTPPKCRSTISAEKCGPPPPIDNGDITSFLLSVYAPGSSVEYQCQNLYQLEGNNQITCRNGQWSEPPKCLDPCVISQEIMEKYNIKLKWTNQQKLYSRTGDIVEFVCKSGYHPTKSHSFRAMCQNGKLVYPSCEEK

non-reduced CFH = target: T7, non-reduced CFH; assay: ELISA, non-reduced antigen
T7 construct: also called CFH (NON-REDUCED)
T7 chain: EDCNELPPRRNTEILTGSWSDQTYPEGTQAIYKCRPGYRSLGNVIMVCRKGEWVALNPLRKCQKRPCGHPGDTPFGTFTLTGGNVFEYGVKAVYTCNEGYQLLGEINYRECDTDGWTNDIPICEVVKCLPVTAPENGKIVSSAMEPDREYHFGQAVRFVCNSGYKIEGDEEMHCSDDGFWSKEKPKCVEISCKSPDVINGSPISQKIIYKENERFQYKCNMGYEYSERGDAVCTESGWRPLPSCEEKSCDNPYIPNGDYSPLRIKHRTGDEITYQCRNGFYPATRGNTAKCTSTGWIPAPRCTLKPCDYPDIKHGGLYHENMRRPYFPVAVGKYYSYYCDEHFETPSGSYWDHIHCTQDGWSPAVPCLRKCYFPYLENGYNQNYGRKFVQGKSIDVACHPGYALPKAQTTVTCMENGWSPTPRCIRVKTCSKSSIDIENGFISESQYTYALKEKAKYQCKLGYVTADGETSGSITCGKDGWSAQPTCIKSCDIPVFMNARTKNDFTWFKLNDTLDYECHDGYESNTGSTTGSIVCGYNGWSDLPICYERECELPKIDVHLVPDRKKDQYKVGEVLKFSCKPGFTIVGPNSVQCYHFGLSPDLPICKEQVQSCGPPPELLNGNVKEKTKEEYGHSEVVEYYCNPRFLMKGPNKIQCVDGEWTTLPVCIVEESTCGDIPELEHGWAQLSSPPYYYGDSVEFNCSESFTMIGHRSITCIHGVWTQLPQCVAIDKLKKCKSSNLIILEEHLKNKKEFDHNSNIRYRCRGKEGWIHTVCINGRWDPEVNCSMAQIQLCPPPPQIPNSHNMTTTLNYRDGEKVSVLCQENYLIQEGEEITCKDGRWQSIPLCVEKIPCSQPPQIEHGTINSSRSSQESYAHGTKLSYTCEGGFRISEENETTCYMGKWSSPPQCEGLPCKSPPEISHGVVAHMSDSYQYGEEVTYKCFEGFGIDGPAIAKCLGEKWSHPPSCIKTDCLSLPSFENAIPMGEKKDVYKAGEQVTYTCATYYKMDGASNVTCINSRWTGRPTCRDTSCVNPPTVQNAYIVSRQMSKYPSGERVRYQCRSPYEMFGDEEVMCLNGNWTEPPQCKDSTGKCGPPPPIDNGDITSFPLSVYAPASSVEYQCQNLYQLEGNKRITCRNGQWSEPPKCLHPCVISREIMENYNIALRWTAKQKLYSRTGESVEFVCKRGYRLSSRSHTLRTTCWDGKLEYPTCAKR

non-reduced CFHR5 = target: T8, non-reduced CFHR5; assay: ELISA, non-reduced antigen
T8 construct: also called CFHR5 (NON-REDUCED)
T8 chain: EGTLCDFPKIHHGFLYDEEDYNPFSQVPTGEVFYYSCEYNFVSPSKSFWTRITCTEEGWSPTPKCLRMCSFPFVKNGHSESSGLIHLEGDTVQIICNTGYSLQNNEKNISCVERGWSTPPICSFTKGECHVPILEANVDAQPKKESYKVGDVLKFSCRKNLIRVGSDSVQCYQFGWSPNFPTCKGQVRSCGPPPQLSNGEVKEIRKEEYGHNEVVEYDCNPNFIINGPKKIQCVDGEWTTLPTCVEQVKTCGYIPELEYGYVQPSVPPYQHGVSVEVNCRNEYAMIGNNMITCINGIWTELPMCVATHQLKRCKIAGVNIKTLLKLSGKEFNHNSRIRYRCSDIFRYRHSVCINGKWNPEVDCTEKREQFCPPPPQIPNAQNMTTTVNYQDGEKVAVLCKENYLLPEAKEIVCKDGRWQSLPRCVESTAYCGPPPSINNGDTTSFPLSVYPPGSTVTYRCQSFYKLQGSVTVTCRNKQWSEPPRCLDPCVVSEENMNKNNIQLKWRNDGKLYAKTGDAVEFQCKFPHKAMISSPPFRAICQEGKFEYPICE

non-reduced CFHR4 = target: T9, non-reduced CFHR4; assay: ELISA, non-reduced antigen
T9 construct: not reduced; also called CFHR4 (NON-REDUCED)

non-reduced CFHR1 = target: T10, non-reduced CFHR1; assay: ELISA, non-reduced antigen
T10 construct: also called CFHR1 (NON-REDUCED)
T10 chain: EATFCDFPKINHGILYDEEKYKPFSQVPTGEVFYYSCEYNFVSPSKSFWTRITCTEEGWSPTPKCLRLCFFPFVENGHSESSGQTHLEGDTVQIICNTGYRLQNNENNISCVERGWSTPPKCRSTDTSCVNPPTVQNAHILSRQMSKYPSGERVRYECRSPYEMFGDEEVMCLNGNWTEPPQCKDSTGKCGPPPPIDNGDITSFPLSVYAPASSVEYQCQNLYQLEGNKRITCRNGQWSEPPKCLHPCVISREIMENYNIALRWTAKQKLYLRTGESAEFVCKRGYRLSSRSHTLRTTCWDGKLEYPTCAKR

non-reduced CFHR3 = target: T11, non-reduced CFHR3; assay: ELISA, non-reduced antigen
T11 construct: also called CFHR3 (NON-REDUCED)
T11 chain: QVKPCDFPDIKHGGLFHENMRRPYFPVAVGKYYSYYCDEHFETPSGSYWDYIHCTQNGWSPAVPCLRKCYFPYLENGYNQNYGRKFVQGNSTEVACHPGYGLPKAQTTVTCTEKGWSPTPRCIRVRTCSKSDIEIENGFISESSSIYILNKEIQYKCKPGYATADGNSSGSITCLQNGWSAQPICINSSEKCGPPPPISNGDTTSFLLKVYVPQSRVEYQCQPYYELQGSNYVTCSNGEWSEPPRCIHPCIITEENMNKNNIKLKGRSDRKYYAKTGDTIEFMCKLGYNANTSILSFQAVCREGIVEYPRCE

reduced CFHR3 [5] = target: T2, reduced CFHR3; assay: ELISA on reduced CFHR3
reduced CFHR5 [6] = target: T4, reduced CFHR5; assay: ELISA on reduced CFHR5
reduced CFHR5 [7] = target: T4, reduced CFHR5; assay: phage ELISA on reduced CFHR5 [B]

Binder	fold change vs isotype at 1 ug/ml (reduced CFHR2) [fold]	binding result (reduced CFHR3 [1])	fold change vs isotype at 1 ug/ml (reduced CFHR3 [1]) [fold]	fold change vs isotype at 1 ug/ml (reduced CFHR1) [fold]	binding result (reduced CFHR5 [2])	fold change vs isotype at 1 ug/ml (reduced CFHR5 [2]) [fold]	fold change vs isotype at 1 ug/ml (reduced CFH [3]) [fold]	Harsh Heat challenge ELISA value (reduced CFH [4])	fold change vs isotype at 1 ug/ml (non-reduced CFHR2) [fold]	fold change vs isotype at 1 ug/ml (non-reduced CFH) [fold]	binding result (non-reduced CFHR5)	fold change vs isotype at 1 ug/ml (non-reduced CFHR5) [fold]	fold change vs isotype at 1 ug/ml (non-reduced CFHR4) [fold]	fold change vs isotype at 1 ug/ml (non-reduced CFHR1) [fold]	binding result (non-reduced CFHR3)	fold change vs isotype at 1 ug/ml (non-reduced CFHR3) [fold]	binding result (reduced CFHR3 [5])	binding result (reduced CFHR5 [6])	binding result (reduced CFHR5 [7])
ATL_0004715 (antibody, human IgG1, kappa, V domains shown, also called ATL4715) VH: EVQLVESGGGVVQPGRSLRLSCAASGFTFSRYGMHWVRQAPGKGLEWVAVMSYDGSTKYYADSVKGRFAISRDNPKNTLFLQMNSLRPDDTAVYYCAKGGAAAAVMDVWGKGTTVTVSS VL: DIVMTQSPDSLTVSLGERATISCKSSQRLLYSSNNKNYLAWYQQKPGQPPKLLMYWASTRESGVPDRFSGSGSGTDFSLTISSLQAEDVAVYYCQQYYNPPWTFGQGTKVEVKR	9.9	no binding (tested: 1 ug/ml)	0.9	22.9	no binding (tested: 1 ug/ml)	1	17.2	0.09	3.9	10	no binding (tested: 1 ug/ml)	0.9	0.9	10.1	no binding (tested: 1 ug/ml)	1			
ATL_0005155 (antibody, human IgG1, kappa, V domains shown, one of the 10 lead mAbs; IgG1; also called ATL5155; ATL_0005155-001) VH: QVQLVESGGGVVQPGRSLRLSCAASGFTFSNYGMHWVRQAPGKGLEWVAVTSFDGKTKYYADSVKGRFTISRDNSKNTLYLQMNSLRAEDTAVYYCAKGGATAAVFDSWGQGTLVTVSS VL: not shown	11.3		1	23		1			7		no binding (tested: 1 ug/ml)	1	1	13	no binding (tested: 1 ug/ml)	1	no binding (tested: 100 ug/ml)	no binding (tested: 100 ug/ml)	
ATL_0004894 (antibody, human IgG1, kappa, V domains shown, germlined ATL4717, IgG1; also called ATL4894; 4894 IgG) VH: QVQLVESGGGVVQPGRSLRLSCAASGFTFSIYGMHWVRQAPGKGLEWVAVMSFDGKTKYYADSVKGRFTISRDNSKNTLYLQMNSLRAEDTAVYYCAKGGATAAVFDSWGQGTLVTVSS VL: not shown	10.3		1	24.4		1	18.4	0.58	7.7	9.8		0.9		16.6		1			
4894 phage (scFv, also called phage displaying the ATL4894 scFv) scFv displayed on phage: QVQLVESGGGVVQPGRSLRLSCAASGFTFSIYGMHWVRQAPGKGLEWVAVMSFDGKTKYYADSVKGRFTISRDNSKNTLYLQMNSLRAEDTAVYYCAKGGATAAVFDSWGQGTLVTVSGGGGSGGGGSGGGGSDIVMTQSPDSLAVSLGERATINCKSSQSLLYRSNNKNYLAWYQQKPGQPPKLLIYWASTRESGVPDRFSGSGSGTDFTLTISSLQAEDVAVYYCQQYYNPPWTFGQGTKVEIK																			no binding
